Assay results as given in US20230295258A1.

Molecular target: IL-12 receptor of human T cells (human) (UniProt P42701)
Experiment: cell-based or functional assay

Chain of IL-12 receptor of human T cells (human) (Q99665 24-862, chain 2 of 2, other chains not shown): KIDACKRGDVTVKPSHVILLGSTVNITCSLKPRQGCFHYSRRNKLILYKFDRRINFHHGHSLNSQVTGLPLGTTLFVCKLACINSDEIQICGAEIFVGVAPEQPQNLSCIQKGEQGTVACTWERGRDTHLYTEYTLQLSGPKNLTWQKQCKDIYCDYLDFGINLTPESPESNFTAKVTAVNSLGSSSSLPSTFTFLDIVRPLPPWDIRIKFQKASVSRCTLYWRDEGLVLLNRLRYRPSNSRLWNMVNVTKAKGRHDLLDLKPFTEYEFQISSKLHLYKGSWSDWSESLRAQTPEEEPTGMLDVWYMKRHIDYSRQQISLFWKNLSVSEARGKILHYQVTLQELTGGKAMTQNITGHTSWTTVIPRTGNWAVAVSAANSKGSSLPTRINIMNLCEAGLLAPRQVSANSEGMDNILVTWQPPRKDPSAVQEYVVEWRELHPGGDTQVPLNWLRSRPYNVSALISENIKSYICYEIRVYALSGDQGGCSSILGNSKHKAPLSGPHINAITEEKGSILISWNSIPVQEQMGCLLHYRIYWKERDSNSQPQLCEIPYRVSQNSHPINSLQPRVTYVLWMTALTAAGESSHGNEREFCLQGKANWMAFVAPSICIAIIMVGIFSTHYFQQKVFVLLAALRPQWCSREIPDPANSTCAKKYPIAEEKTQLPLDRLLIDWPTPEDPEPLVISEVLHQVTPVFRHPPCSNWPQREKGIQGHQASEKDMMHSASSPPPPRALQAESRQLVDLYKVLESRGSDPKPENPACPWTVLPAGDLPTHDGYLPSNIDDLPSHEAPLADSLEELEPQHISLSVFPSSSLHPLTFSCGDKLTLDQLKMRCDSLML

Substance: recombinant human IL-12 (from UniProt P29459 23-219; P29460 23-328) (ligand)
- half maximal effective concentration (EC50) of p-STAT4 (Tyr693) in activated human T cells, AlphaLISA: 8.95 pM
